Experimental findings from paper PMC11491487 are described below.

The target of test [1] is chimeric RyR (chiRyR): rabbit RyR1 carrying four Spodoptera frugiperda RyR residues of the diamide-binding pocket (rabbit) (UniProt P11716). Nature of the test: cryo-EM structure; 5 mg/ml purified chiRyR samples with 5 mM caffeine, 2 mM ATP, 100 µM CaM1234, Ca2+, 2% or 5% DMSO, with or without diamide (50 µM FLU or TET; 625 µM CHL); 1 h at room temperature; C4 symmetry in refinement.

The target of test [2] is chiRyR-I4657M/G4819E (chiRyR carrying the two resistance mutations) (rabbit) (UniProt P11716). The test is described as above.

Regarding “chimeric RyR (chiRyR): rabbit RyR1 carrying four Spodoptera frugiperda RyR residues of the diamide-binding pocket, P11716 1-5037 (receptor)”, the stoichiometry N in test [1] stood at 4. In turn, “chiRyR-I4657M/G4819E (chiRyR carrying the two resistance mutations), P11716 1-5037 (receptor)” had a stoichiometry N in test [2] of 4.

For orientation: stoichiometry N means a count of units in the complex or per binding partner.
